This note sets out measurements from PMC5815136.

The target of series [1] is T1, Ct_Rio2 (Chaetomium thermophilum? (given only as …, UniProt L0BC08 1-396)).
T1 sequence: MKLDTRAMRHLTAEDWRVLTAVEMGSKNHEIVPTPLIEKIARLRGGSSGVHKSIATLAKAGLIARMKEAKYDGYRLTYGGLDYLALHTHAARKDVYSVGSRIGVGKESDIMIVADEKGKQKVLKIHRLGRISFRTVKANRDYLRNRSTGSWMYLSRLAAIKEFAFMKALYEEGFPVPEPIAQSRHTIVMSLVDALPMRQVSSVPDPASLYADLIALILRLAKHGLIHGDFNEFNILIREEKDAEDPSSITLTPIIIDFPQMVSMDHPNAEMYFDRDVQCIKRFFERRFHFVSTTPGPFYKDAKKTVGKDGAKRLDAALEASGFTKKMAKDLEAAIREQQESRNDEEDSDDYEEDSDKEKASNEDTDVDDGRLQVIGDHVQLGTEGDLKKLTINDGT
The experiment in a line: EMSA.

The target of series [2] is T2, Ct_Rio2 K106A (Chaetomium thermophilum? (given only as …, UniProt L0BC08 1-396, K106A)).
T2 sequence: T1 sequence with K106A
The experiment in a line: EMSA. (A gel shift assay detects complexes by their altered migration in electrophoresis.)

Changes are numbered by the printed parent chain.

Consider GGGUUAAUUUGACUCAACACGGGGAAA (structured_RNA) [h31], for which the binding result in series [1] is listed as “binds”.

As for GGGUUAAUUUGACUCAACACAAAGAAA (structured_RNA) [h31* (h31-Stab)], the binding result in series [1] and in series [2] was “binds” in each case.
